Measurements reported in patent publication US20050054023A1 (BOARD OF SUPERVISORS OF LOUISIANA STATE UNIVERSITY AND …, published 2005).

The binders below were run against extracellular signal-regulated protein kinase 2 (purified, recombinant, activated ERK2) (assay: cell-based or functional assay).
Chain of extracellular signal-regulated protein kinase 2 (purified, recombinant, activated ERK2) (P28482 2-360): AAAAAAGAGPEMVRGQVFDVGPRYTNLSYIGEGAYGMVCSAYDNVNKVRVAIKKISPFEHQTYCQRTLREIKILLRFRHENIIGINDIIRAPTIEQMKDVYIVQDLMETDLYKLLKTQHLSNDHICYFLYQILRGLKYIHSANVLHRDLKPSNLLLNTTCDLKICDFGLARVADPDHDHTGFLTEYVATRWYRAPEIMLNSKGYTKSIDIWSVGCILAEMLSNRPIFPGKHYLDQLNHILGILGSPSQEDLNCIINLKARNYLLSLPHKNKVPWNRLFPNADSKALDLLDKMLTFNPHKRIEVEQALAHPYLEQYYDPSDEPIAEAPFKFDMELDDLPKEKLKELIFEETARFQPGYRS

Question: How did the V/K turn out when APRTPGGR [MBPtide (Thr97) …] was run?
Answer: 23

Question: With EAIMSPRFK [type 1 human TH-Ser31 peptide EAIMSPRFK] as the binder, how does the V/K read?
Answer: 28

Question: Which V/K does the source give for KQAEAVTSPR [rat TH-Ser31 peptide KQAEAVTSPR] here?
Answer: 5

Question: For ATGPLSPFGRR [ERKtide], which V/K is on record?
Answer: 136

Question: YQAEAIMSPRFIGRRQ [type 1 human TH-Ser31 peptide YQAEAIMSPRFIGRRQ] was tested. Which V/K did it give?
Answer: 80
